Results from paper PMC7809020.

Key:
[1] = target: ATM (biolayer interferometry) (UniProt Q13315); assay: BLI
[2] = target: ATM (biolayer interferometry) (UniProt Q13315); assay: BLI; in vitro; SPOP peptide bound to ATM, measured by diffracted light wavelength

Sequence of SPOP wild-type peptide (O43791 whole entry, looked up, tested part not stated): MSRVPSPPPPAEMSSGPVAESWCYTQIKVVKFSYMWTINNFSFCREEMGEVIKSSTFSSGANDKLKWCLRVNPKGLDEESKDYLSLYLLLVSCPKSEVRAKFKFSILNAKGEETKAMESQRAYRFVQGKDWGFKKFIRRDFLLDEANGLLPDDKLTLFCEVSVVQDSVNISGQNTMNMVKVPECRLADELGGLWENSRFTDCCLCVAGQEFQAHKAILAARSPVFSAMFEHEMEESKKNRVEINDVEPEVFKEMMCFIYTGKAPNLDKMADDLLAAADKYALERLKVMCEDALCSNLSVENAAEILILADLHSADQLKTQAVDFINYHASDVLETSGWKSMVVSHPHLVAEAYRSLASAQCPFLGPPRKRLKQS

Kd [1] | amount bound relative to the mutant peptide [2] | Substance
45.5 µM | – | SPOP S119N mutant peptide (from UniProt O43791)
– | 2 fold | SPOP wild-type peptide
0.0698 µM | – | SPOP wild-type peptide (from UniProt O43791)
